{"source": "patent US20220162328A1", "about": "(SHANDONG BOAN BIOTECHNOLOGY, published 2022)", "binders": {"B1": {"name": "BA420 (antibody, IgG4, V domains shown)", "VH": "QVQLVESGGGAVQPGRSLRVSCAASGFTFSSHGMDWVRQVPGKGLEWVAVISYDGKKKYYADSVKGRFTISRDNSKNTLYLQMNSLRAEDTAIYYCVKESRYYYGMDVWGQGTTVTVSS", "VL": "DIVMTQSPSTLSASVGDRVTITCRASPSISSWLAWYQQKPGKAPKVLIYKSSRLESGVPSRFSGNGSGTEFTLTISSLQPDDFATYYCQQYNGYSWTFGQGTKVEIKR", "notes": "also called IL4RQ24-BA420"}, "B2": {"name": "BA034 (antibody, IgG4, V domains shown)", "VH": "B1 VH with G8R", "VL": "B1 VL with V3Q, P27Q, I29F, S30N, V46L, N65S", "notes": "also called IL4RQ14-BA034"}, "B3": {"name": "IL4R-BA173-IgG4 (antibody, V domains shown)", "VH": "QVQLVESGGGVVQPGRSLRLSCAASGFTFSSYAMHWVRQAPGKGLEWVAVISYDGSNKYYADSVKGRFTISRDNSKNTLYLQMNSLRAEDTAVYYCARGLTTVRGVLYWGQGTLVTVSS", "VL": "DIVMTQSPSTLSASVGDRVTITCRASQSISTRLAWYQQKPGKAPKLLVYWASSLESGVPSRFSGSGSGTEFTLAISSLQPDDFGTYYCQQYTSYSWTFGQGTKLEIKR", "notes": "also called IL4RQ6-BA173"}, "B4": {"name": "IL4R-BA167-IgG4 (antibody, V domains shown)", "VH": "B3 VH", "VL": "EIVMTQSPSSLSASLGDRVTITCRASQNIGSRLAWYQQKPGKAPKLLIYKASSLESGVPSRFSGSGSGTEFTLTISSLQPDDFATYYCQQYNSYSWTFGQGTKLEIKR", "notes": "also called IL4RQ6-BA167"}, "B5": {"name": "BA1301 (antibody, IgG4, V domains shown)", "VH": "QVQLVESGGGVVQPGRSLRLSCAASGLTFSSYAMHWVRQAPGKGLEWVAVISYDGSNKYYADSVKGRFTISRDNSKNTLYLQMNSLRAEDTAVYYCARGFGYFDLWGRGTLVTVSS", "VL": "DIQMTQSPSTLSASVGDRVTITCRASQSITRRLAWYQQKPGKAPKLLIYKASSLESGVPSRFSGSGSGTEFTLTISSLQPDDFATYYCQQYVSFSRTFGQGTKVEIKR", "notes": "also called IL4RQ29-BA1301"}, "B6": {"name": "IL4R-BA030-IgG4 (antibody, V domains shown)", "VH": "QVQLVESGGGVVQPGRSLRLSCAASGFTFSSYAIHWVRQAPGKGLEWVAVISYDGSKKYYADSVKGRFTISRDNSKNTLYLQMNSLRAEDTAVYYCAREYYYGMDVWGQGTTVTVSS", "VL": "DIVMTQSPSTLSASVGDRVTITCRASQSISNWLAWYQQKPGKAPKRLIYKASSLESGVPSRFSGSGSGTEFTLTISSLQPDDFATYYCQQYNRYFTFGQGTKLEIKR", "notes": "also called IL4RQ14-BA030"}, "B7": {"name": "Dupilumab (antibody, human IgG4 S228P, kappa, V domains shown)", "VH": "EVQLVESGGGLEQPGGSLRLSCAGSGFTFRDYAMTWVRQAPGKGLEWVSSISGSGGNTYYADSVKGRFTISRDNSKNTLYLQMNSLRAEDTAVYYCAKDRLSITIRPRYYGLDVWGQGTTVTVSS", "VL": "DIVMTQSPLSLPVTPGEPASISCRSSQSLLYSIGYNYLDWYLQKSGQSPQLLIYLGSNRASGVPDRFSGSGSGTDFTLKISRVEAEDVGFYYCMQALQTPYTFGQGTKLEIKR"}}, "note": "Numbering of substitutions follows the chain as printed."}
{"molecular_target": "T1, IL4R-Fc-biotin (UniProt P24394 26-232, biotinylated (sites not given))", "T1 construct": "also called IL4R-Fc protein (Sinobiological Co., Ltd., 10402-H02H); not shown: Fc part", "T1 sequence (looked up)": "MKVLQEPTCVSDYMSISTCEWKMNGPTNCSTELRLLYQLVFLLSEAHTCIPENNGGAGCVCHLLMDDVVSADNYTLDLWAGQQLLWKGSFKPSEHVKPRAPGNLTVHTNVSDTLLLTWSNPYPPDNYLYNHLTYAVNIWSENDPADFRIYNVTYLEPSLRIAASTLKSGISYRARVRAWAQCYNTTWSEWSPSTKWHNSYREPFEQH", "assay": "competition ELISA: IL4 coated, IL4R-Fc-biotin (0.4 µg/ml) with antibody dilutions", "procedure": "IL4 (11846-HANE, Sinobiological Co., Ltd.) was coated at the concentration of 0.2 μg/ml in 100 μL/well at 4° C. overnight; 3% skimmed milk powder was used for blocking 1 h; at the same time, 50 μL of IL4R-Fc-biotin (0.4 μg/ml) and 50 μL of candidate antibody at different concentrations (16 μg/mL, 4 μg/mL, 1 μg/mL, 0.25 μg/mL, 0.0625 μg/mL, 0.015625 μg/mL, and 0.00390625 μg/mL), 100 μL in total, were added to the blocked ELISA plate and co-incubated at 37° C. for 1 h; after washing three times with PBST, […]/HRP (R&D, Cat. No.: 890803) was added, and incubated at 37° C. for 1 h; and 100 μL of TMB color developing solution (Beijing Meike Wande Co., Ltd., Cat. No.: 1001) was added to each well. Color development was stopped, after 10 min color development, with the addition of 50 μL of 2 M concentrated sulfuric acid, and OD450 was measured with a microplate reader.", "units": {"IC50": "µg/mL"}}
{"binder": "B1", "IC50": 0.334}
{"binder": "B2", "IC50": 0.71}
{"binder": "B3", "IC50": 0.354}
{"binder": "B4", "IC50": 0.458}
{"binder": "B5", "IC50": 0.592}
{"binder": "B6", "IC50": 0.343}
{"molecular_target": "T1, IL4R-Fc-biotin", "assay": "competition ELISA: IL13RA1 coated, IL4R-Fc-biotin (0.24 µg/ml) and IL13 (1 µg/ml) pre-incubated with antibody dilutions", "procedure": "IL13RA1 (10943-H08H, Sinobiological Co., Ltd.) was coated at the concentration of 0.8 μg/ml in 100 μL/well at 4° C. overnight; 3% skimmed milk powder was used for blocking 1 h; at the same time, IL4R-Fc-biotin (0.24 μg/ml) and IL13 (1 μg/ml, 10369-HANE, Sinobiological Co., Ltd.) and candidate antibody at different concentrations (30 μg/mL, 7.5 μg/mL, 1.875 μg/mL, 0.46875 μg/mL, 0.1171875 μg/mL and 0 μg/mL) were co-incubated at 37° C. for 1 h, then added to the blocked ELISA plate and co-incubated at 37° C. for another 1 h; after washing three times with PBST, […]/HRP (R&D, Cat. No.: 890803) was added, and incubated at 37° C. for 1 h; and after washing four times with PBST, TMB was used for color development for 10 min. 50 μL of 2M H₂SO₄ was added to each well to stop color development. OD450 was measured with a microplate reader.", "units": {"IC50": "µg/mL"}}
{"binder": "B3", "IC50": 0.302}
{"binder": "B4", "IC50": 0.407}
{"binder": "B6", "IC50": 0.381}
{"molecular_target": "T1, IL4R-Fc-biotin", "assay": "competition ELISA: IL4 coated, IL4R-Fc-biotin (0.4 µg/ml) pre-incubated with antibody dilutions", "procedure": "IL4 (11846-HANE, Sinobiological Co., Ltd.) was coated at the concentration of 0.2 μg/ml in 100 μL/well at 4° C. overnight; 3% skimmed milk powder was used for blocking 1 h; at the same time, IL4R-Fc-biotin (0.4 μg/ml) and candidate antibody at different concentrations (30 μg/mL, 7.5 μg/mL, 1.875 μg/mL, […], 0.1171875 μg/mL and 0 μg/mL) were co-incubated at 37° C. for 1 h, then added to the blocked ELISA plate and co-incubated at 37° C. for another 1 h; then […]/HRP (R&D, Cat. No.: 890803) was added, and incubated at 37° C. for 1 h; color development was stopped, after 10 min color development, with the addition of 50 μL of 2M H₂SO₄ to each well. OD450 was measured with a microplate reader.", "units": {"IC50": "µg/mL"}}
{"binder": "B3", "IC50": 0.367}
{"binder": "B4", "IC50": 0.477}
{"binder": "B6", "IC50": 0.346}
{"molecular_target": "T2, receptors of IL4/IL13 on TF-1 cells and PBMC (IL4 receptor) (human, UniProt P24394 26-825)", "T2 sequence (looked up)": "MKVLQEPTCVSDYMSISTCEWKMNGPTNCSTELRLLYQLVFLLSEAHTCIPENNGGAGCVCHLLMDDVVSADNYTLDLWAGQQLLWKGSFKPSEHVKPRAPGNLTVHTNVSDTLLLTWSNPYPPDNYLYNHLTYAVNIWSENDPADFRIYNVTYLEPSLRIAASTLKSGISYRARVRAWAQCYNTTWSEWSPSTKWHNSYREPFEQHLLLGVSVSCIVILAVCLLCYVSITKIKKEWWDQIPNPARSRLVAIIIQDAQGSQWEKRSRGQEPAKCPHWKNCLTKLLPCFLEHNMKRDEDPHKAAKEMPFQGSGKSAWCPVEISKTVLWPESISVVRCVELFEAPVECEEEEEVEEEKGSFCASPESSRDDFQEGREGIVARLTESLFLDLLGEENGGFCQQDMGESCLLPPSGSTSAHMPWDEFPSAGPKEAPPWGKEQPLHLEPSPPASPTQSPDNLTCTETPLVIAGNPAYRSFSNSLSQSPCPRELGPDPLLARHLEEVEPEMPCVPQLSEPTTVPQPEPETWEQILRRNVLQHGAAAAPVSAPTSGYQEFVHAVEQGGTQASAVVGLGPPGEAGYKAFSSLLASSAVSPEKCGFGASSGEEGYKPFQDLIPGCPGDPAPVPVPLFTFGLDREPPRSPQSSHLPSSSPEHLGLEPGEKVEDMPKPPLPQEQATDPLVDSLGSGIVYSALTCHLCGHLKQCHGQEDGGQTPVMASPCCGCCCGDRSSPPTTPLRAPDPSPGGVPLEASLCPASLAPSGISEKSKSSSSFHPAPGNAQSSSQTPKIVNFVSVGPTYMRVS", "assay": "cell-based or functional assay", "units": {"IC50 (IL4, ng/mL), PBMC, inhibition of IL4-promoted proliferation": "ng/mL", "IC50 (IL4, ng/mL), TF-1 Cells, inhibition of IL4-induced proliferation": "ng/mL", "IC50 (IL13, ng/mL), TF-1 Cells, inhibition of IL13-induced proliferation": "ng/mL"}}
{"binder": "B3", "IC50 (IL4, ng/mL), PBMC, inhibition of IL4-promoted proliferation": 1.02, "IC50 (IL4, ng/mL), TF-1 Cells, inhibition of IL4-induced proliferation": 66, "IC50 (IL13, ng/mL), TF-1 Cells, inhibition of IL13-induced proliferation": 6}
{"binder": "B4", "IC50 (IL4, ng/mL), PBMC, inhibition of IL4-promoted proliferation": 1.52, "IC50 (IL4, ng/mL), TF-1 Cells, inhibition of IL4-induced proliferation": 139, "IC50 (IL13, ng/mL), TF-1 Cells, inhibition of IL13-induced proliferation": 5}
{"binder": "B7", "IC50 (IL4, ng/mL), PBMC, inhibition of IL4-promoted proliferation": 2.87, "IC50 (IL4, ng/mL), TF-1 Cells, inhibition of IL4-induced proliferation": 65, "IC50 (IL13, ng/mL), TF-1 Cells, inhibition of IL13-induced proliferation": 9}
{"binder": "B6", "IC50 (IL4, ng/mL), PBMC, inhibition of IL4-promoted proliferation": 8.09, "IC50 (IL4, ng/mL), TF-1 Cells, inhibition of IL4-induced proliferation": 227, "IC50 (IL13, ng/mL), TF-1 Cells, inhibition of IL13-induced proliferation": 9}
{"molecular_target": "T3, human IL4R (10402-H08H, Sinobiological Co., Ltd.) (human, UniProt P24394 26-232)", "T3 construct": "Bought protein, coated on ELISA plates; also called IL4R-His protein; IL4R protein; not shown: His tag", "T3 sequence (looked up)": "T1 sequence (looked up)", "assay": "ELISA: IL4R coated at graded concentrations (0.4-0 µg/ml), antibody fixed at 2 µg/ml", "procedure": "CBS coating solution (pH 9.6 carbonic acid solution) was used to coat protein IL4R (10402-H08H, Sinobiological Co., Ltd.) at different concentrations (0.4 μg/ml, 0.2 μg/ml, 0.1 μg/ml, 0.05 μg/ml, 0.025 μg/ml, 0.0125 μg/ml, 0.00625 μg/ml and 0 μg/ml) in 100 μL/well at 4° C. overnight; 3% skimmed milk powder was used for blocking 1 h at 37° C.; 100 μL of candidate antibody at 2 μg/ml was added to each well and incubated at 37° C. for 1 h; and then goat anti-human IgG (H+L)/HRP (KPL, Cat. No.: 474-1006) was added, and incubated at 37° C. for 1 h. Color development was stopped, after 10 min color development, with the addition of 50 μL of 2 M H₂SO₄ to each well, and OD450 was measured with a microplate reader. Compared with the control antibody, 3 antibodies had close binding sensitivity to IL4R protein.", "units": {"EC50": "µg/mL"}}
{"binder": "B3", "EC50": 0.025}
{"binder": "B4", "EC50": 0.045}
{"binder": "B6", "EC50": 0.031}
